According to article PMC11895441:

Target: human complement Factor H (human) (UniProt P08603)
Experiment: SPR; Biacore X100 Plus; human FH captured by immobilised anti-FH mAb (Q254) on CM5; refolded NspA as analyte, five 3.16-fold dilutions from 10 µM, single-cycle kinetics; 10 mM HEPES, 150 mM NaCl, 3 mM EDTA, 0.005% P-20, pH 7.4; 1:1 model; apparent KD

Sequence of UniProt P08603 (P08603 19-1231): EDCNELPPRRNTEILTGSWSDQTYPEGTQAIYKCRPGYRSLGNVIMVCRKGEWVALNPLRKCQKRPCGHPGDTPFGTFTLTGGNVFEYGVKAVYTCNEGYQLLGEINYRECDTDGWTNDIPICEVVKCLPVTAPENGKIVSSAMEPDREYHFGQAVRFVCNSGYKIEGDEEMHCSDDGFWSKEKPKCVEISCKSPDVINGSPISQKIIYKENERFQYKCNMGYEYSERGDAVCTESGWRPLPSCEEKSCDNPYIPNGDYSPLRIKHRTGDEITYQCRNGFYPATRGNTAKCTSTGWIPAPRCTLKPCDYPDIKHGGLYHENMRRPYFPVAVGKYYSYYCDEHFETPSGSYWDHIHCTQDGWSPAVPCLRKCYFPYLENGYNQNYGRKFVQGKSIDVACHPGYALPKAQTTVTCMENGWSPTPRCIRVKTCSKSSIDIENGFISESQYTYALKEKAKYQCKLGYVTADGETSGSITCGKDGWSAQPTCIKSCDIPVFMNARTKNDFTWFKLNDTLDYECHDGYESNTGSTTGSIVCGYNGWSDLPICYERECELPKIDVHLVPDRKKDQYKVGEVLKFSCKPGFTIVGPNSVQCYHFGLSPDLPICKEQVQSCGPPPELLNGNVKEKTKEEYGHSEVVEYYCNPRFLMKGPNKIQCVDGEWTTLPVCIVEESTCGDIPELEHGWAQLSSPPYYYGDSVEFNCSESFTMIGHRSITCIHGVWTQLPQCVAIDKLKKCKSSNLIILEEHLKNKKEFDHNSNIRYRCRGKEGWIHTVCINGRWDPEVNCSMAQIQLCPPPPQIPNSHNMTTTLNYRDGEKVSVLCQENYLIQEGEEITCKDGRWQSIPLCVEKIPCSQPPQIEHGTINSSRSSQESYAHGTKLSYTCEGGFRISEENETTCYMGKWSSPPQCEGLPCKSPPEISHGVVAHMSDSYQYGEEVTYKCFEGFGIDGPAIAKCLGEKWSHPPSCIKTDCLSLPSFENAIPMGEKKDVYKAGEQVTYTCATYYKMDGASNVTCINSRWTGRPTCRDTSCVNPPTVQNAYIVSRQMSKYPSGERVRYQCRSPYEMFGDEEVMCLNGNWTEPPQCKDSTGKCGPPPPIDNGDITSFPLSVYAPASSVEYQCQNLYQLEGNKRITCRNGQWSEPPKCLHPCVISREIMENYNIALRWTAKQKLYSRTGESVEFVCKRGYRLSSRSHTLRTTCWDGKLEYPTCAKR

In the case of “purified, refolded NspA from N. meningitidis strain 8047, wild type, without signal sequence (natural protein)”, the Kd is reported as 24.8 nM, the koff is reported as 0.000608 s⁻¹ and the kon is reported as 25100 M⁻¹ s⁻¹.
